The values below come from patent US20260250410A1, “ANTIBODY AND USE THEREOF” (SICHUAN HUIYU PHARMACEUTICAL CO., LTD., priority 2022, published 2026).

T1: HuCDCP1-C (Homo sapiens, UniProt Q9H5V8)
T1 construct: made in house; host or cells: HEK-293T
T1 sequence (Q9H5V8 30-667): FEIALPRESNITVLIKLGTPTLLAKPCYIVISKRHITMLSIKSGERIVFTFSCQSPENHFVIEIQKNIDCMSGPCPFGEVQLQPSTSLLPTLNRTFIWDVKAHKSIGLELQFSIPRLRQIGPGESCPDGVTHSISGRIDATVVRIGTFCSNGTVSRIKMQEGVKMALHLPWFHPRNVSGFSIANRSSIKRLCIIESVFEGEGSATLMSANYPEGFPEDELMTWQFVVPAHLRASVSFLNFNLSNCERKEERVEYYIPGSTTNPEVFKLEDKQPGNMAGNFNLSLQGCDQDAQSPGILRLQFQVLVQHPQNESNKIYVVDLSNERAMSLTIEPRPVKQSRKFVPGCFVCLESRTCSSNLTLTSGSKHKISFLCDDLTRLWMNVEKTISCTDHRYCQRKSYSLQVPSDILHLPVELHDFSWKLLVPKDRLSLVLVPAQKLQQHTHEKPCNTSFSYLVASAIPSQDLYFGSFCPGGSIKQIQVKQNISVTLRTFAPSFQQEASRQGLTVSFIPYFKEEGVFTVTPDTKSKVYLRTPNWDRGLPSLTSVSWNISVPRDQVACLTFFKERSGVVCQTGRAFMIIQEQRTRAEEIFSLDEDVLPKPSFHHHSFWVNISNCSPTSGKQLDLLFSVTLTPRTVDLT

B1: 1CP-151: humanized anti-CDCP1 antibody produced by 8C9; VH SEQ ID NO: 343, VL SEQ ID NO: 354 (antibody, V domains shown)
VH: EVQLVESGGGLVQPGRSLRLSCTASGLTFTHYHMSWFRQAPGKGLEWVAIIRNKAYGYTTDYSASVRGRFTISRDDSKSILYLQMNSLKTEDTAVYYCVREGGYGYDGTFAYWGQGTLVTVSS
VL: DIQMTQSPSSLSASVGDRVTITCRASESVDNYGISFMNWFQQKPGQAPKLLIYAASNQGSGVPSRFSGSGSGTDFTLTISSMQPEDFATYYCQQSKEVPRTFGGGTKVEIK
modifications: humanized antibody 8C9 heavy chain variable region 01; humanized antibody 8C9 light chain variable region 01
B2: 1CP-159: humanized anti-CDCP1 antibody produced by 8C9; VH SEQ ID NO: 343, VL SEQ ID NO: 356 (antibody, V domains shown)
VH: EVQLVESGGGLVQPGRSLRLSCTASGLTFTHYHMSWFRQAPGKGLEWVAIIRNKAYGYTTDYSASVRGRFTISRDDSKSILYLQMNSLKTEDTAVYYCVREGGYGYDGTFAYWGQGTLVTVSS
VL: DIQMTQSPSSLSASVGDRVTITCRASESVDNYGISFMNWFQQKPGQPPKLLIYAASNQGSGVPSRFSGSGSGTDFTLTISSMQPEDFATYFCQQSKEVPRTFGGGTKVEIK
modifications: humanized antibody 8C9 heavy chain variable region 01; humanized antibody 8C9 light chain variable region 03
B3: 1CP-162: humanized anti-CDCP1 antibody produced by 8C9; VH SEQ ID NO: 346, VL SEQ ID NO: 356 (antibody, V domains shown)
VH: EVQLVESGGGLVQPGRSLRLSCTTSGLTFTHYHMSWVRQPPGKAPEWVAIIRNKAYGYTTDYSASVRGRFTISRDDSKSILYLQMNSLKTEDTAVYYCVREGGYGYDGTFAYWGQGTLVTVSS
VL: DIQMTQSPSSLSASVGDRVTITCRASESVDNYGISFMNWFQQKPGQPPKLLIYAASNQGSGVPSRFSGSGSGTDFTLTISSMQPEDFATYFCQQSKEVPRTFGGGTKVEIK
modifications: humanized antibody 8C9 heavy chain variable region 04; humanized antibody 8C9 light chain variable region 03
B4: 1CP-155: humanized anti-CDCP1 antibody produced by 8C9; VH SEQ ID NO: 343, VL SEQ ID NO: 355 (antibody, V domains shown)
VH: EVQLVESGGGLVQPGRSLRLSCTASGLTFTHYHMSWFRQAPGKGLEWVAIIRNKAYGYTTDYSASVRGRFTISRDDSKSILYLQMNSLKTEDTAVYYCVREGGYGYDGTFAYWGQGTLVTVSS
VL: DIQMTQSPSSLSASVGDRVTITCRASESVDNYGISFMNWFQQKPGQPPKLLIYAASNQGSGVPSRFSGSGSGTDFTLTISSMQPEDFATYYCQQSKEVPRTFGGGTKVEIK
modifications: humanized antibody 8C9 heavy chain variable region 01; humanized antibody 8C9 light chain variable region 02
B5: 1CP-153: humanized anti-CDCP1 antibody produced by 8C9; VH SEQ ID NO: 345, VL SEQ ID NO: 354 (antibody, V domains shown)
VH: EVQLVESGGGLVQPGRSLRLSCTTSGLTFTHYHMSWVRQAPGKGPEWVAIIRNKAYGYTTDYSASVRGRFTISRDDSKSILYLQMNSLKTEDTAVYYCVREGGYGYDGTFAYWGQGTLVTVSS
VL: DIQMTQSPSSLSASVGDRVTITCRASESVDNYGISFMNWFQQKPGQAPKLLIYAASNQGSGVPSRFSGSGSGTDFTLTISSMQPEDFATYYCQQSKEVPRTFGGGTKVEIK
modifications: humanized antibody 8C9 heavy chain variable region 03; humanized antibody 8C9 light chain variable region 01
B6: 1CP-154: humanized anti-CDCP1 antibody produced by 8C9; VH SEQ ID NO: 346, VL SEQ ID NO: 354 (antibody, V domains shown)
VH: EVQLVESGGGLVQPGRSLRLSCTTSGLTFTHYHMSWVRQPPGKAPEWVAIIRNKAYGYTTDYSASVRGRFTISRDDSKSILYLQMNSLKTEDTAVYYCVREGGYGYDGTFAYWGQGTLVTVSS
VL: DIQMTQSPSSLSASVGDRVTITCRASESVDNYGISFMNWFQQKPGQAPKLLIYAASNQGSGVPSRFSGSGSGTDFTLTISSMQPEDFATYYCQQSKEVPRTFGGGTKVEIK
modifications: humanized antibody 8C9 heavy chain variable region 04; humanized antibody 8C9 light chain variable region 01
B7: 1CP-160: humanized anti-CDCP1 antibody produced by 8C9; VH SEQ ID NO: 344, VL SEQ ID NO: 356 (antibody, V domains shown)
VH: EVQLVESGGGLVQPGRSLRLSCTTSGLTFTHYHMSWVRQAPGKGLEWVAIIRNKAYGYTTDYSASVRGRFTISRDDSKSILYLQMNSLKTEDTAVYYCVREGGYGYDGTFAYWGQGTLVTVSS
VL: DIQMTQSPSSLSASVGDRVTITCRASESVDNYGISFMNWFQQKPGQPPKLLIYAASNQGSGVPSRFSGSGSGTDFTLTISSMQPEDFATYFCQQSKEVPRTFGGGTKVEIK
modifications: humanized antibody 8C9 heavy chain variable region 02; humanized antibody 8C9 light chain variable region 03
B8: 1CP-156: humanized anti-CDCP1 antibody produced by 8C9; VH SEQ ID NO: 344, VL SEQ ID NO: 355 (antibody, V domains shown)
VH: EVQLVESGGGLVQPGRSLRLSCTTSGLTFTHYHMSWVRQAPGKGLEWVAIIRNKAYGYTTDYSASVRGRFTISRDDSKSILYLQMNSLKTEDTAVYYCVREGGYGYDGTFAYWGQGTLVTVSS
VL: DIQMTQSPSSLSASVGDRVTITCRASESVDNYGISFMNWFQQKPGQPPKLLIYAASNQGSGVPSRFSGSGSGTDFTLTISSMQPEDFATYYCQQSKEVPRTFGGGTKVEIK
modifications: humanized antibody 8C9 heavy chain variable region 02; humanized antibody 8C9 light chain variable region 02
B9: 1CP-158: humanized anti-CDCP1 antibody produced by 8C9; VH SEQ ID NO: 346, VL SEQ ID NO: 355 (antibody, V domains shown)
VH: EVQLVESGGGLVQPGRSLRLSCTTSGLTFTHYHMSWVRQPPGKAPEWVAIIRNKAYGYTTDYSASVRGRFTISRDDSKSILYLQMNSLKTEDTAVYYCVREGGYGYDGTFAYWGQGTLVTVSS
VL: DIQMTQSPSSLSASVGDRVTITCRASESVDNYGISFMNWFQQKPGQPPKLLIYAASNQGSGVPSRFSGSGSGTDFTLTISSMQPEDFATYYCQQSKEVPRTFGGGTKVEIK
modifications: humanized antibody 8C9 heavy chain variable region 04; humanized antibody 8C9 light chain variable region 02
B10: 1CP-161: humanized anti-CDCP1 antibody produced by 8C9; VH SEQ ID NO: 345, VL SEQ ID NO: 356 (antibody, V domains shown)
VH: EVQLVESGGGLVQPGRSLRLSCTTSGLTFTHYHMSWVRQAPGKGPEWVAIIRNKAYGYTTDYSASVRGRFTISRDDSKSILYLQMNSLKTEDTAVYYCVREGGYGYDGTFAYWGQGTLVTVSS
VL: DIQMTQSPSSLSASVGDRVTITCRASESVDNYGISFMNWFQQKPGQPPKLLIYAASNQGSGVPSRFSGSGSGTDFTLTISSMQPEDFATYFCQQSKEVPRTFGGGTKVEIK
modifications: humanized antibody 8C9 heavy chain variable region 03; humanized antibody 8C9 light chain variable region 03

The assay addresses T1, HuCDCP1-C. Briefly: Caterra affinity of humanized anti-CDCP1 antibodies. In kind it is binding. The note with it: HuCDCP1-C 2 μg/ml immobilized. The method, then: The humanized anti-CDCP1 antibodies obtained from Example 11 were subjected to gene cloning, constructed into pTT5 expression vector for a small amount of expression in CHO cells (Expi-CHOS: Gibco A29127), and purified with an Fc affinity column (AT Protein A Diamond Plus. No. AA402312). Antibody purity was analyzed by HPLC and determined by Nanodrop. High-throughput affinity assay was carried out for a small amount of antibodies by Caterra.
In the case of B1, the “ka” value turned out to be 158000 M⁻¹ s⁻¹ and the “kd” value turned out to be 0.00302 s⁻¹.
Consider B2, for which the “ka” value was determined as 18000 M⁻¹ s⁻¹ and the “kd” value came to 0.000767 s⁻¹.
Turning to B3, the “ka” value came to 113000 M⁻¹ s⁻¹ and the “kd” value is 0.000305 s⁻¹.
The corresponding values for B4 are 15800 M⁻¹ s⁻¹ and 0.000579 s⁻¹.
For B5 the same measures were 108000 M⁻¹ s⁻¹ and 0.000388 s⁻¹.
For B6 the same measures were 118000 M⁻¹ s⁻¹ and 0.000346 s⁻¹.
On to B7, for which the “ka” value was 110000 M⁻¹ s⁻¹ and the “kd” value was 0.00042 s⁻¹.
The corresponding values for B8 are 123000 M⁻¹ s⁻¹ and 0.000441 s⁻¹.
The corresponding values for B9 are 109000 M⁻¹ s⁻¹ and 0.000321 s⁻¹.
For B10 the same measures were 114000 M⁻¹ s⁻¹ and 0.000365 s⁻¹.
